{
  "source": "patent US20160289299A1",
  "key": {"[1]": {"tested_on": "^superFVa (recombinant super factor five, thrombin-activated)", "sequence (chain, as listed by the source)": "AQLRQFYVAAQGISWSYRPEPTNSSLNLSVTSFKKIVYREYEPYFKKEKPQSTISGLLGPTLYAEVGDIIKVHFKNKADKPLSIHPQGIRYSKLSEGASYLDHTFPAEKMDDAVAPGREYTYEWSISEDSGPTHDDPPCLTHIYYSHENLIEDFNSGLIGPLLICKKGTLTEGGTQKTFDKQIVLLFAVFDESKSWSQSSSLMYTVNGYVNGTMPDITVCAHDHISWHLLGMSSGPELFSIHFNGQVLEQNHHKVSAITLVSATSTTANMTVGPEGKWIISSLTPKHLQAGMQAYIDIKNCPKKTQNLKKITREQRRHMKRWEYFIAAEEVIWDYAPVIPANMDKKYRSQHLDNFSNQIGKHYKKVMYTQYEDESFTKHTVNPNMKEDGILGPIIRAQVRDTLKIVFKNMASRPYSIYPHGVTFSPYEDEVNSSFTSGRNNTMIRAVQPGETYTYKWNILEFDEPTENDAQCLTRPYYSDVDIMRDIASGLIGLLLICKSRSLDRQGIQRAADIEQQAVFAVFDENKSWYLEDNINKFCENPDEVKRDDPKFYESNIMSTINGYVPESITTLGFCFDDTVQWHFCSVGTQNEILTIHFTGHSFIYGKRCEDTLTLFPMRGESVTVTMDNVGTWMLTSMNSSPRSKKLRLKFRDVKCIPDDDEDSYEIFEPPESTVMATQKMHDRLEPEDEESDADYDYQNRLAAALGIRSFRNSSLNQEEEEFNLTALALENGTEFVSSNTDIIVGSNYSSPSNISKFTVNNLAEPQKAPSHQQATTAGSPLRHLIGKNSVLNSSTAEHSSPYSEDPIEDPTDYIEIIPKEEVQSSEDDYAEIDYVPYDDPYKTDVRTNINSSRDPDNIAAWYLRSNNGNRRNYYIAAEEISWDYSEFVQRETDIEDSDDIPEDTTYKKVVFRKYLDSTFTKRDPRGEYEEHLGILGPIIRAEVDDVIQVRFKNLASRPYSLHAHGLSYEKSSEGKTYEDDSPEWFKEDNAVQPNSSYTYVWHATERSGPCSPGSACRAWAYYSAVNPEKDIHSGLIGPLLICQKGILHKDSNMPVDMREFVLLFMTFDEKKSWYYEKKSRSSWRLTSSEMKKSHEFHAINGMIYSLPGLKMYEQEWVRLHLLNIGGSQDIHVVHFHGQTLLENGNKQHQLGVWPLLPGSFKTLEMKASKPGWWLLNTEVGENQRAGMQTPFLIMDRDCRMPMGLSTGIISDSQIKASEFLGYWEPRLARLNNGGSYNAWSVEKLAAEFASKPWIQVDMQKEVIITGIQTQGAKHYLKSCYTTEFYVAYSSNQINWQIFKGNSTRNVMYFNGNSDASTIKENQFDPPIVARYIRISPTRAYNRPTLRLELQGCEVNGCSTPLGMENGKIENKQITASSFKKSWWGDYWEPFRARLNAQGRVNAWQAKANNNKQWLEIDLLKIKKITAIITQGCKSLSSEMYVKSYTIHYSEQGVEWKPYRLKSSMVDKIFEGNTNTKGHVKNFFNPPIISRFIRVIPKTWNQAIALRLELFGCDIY"}, "[2]": {"molecular_target": "recombinant human wild-type FVa (UniProt P12259)"}, "[3]": {"molecular_target": "^superFVa (recombinant super factor five, thrombin-activated) (human) (UniProt P12259)", "test": "cell-based or functional assay"}, "[4]": {"molecular_target": "recombinant human wild-type FVa (UniProt P12259)", "test": "cell-based or functional assay"}},
  "data": [
    {"substance": "recombinant human Activated Protein C (Xigris)", "values": [
      {"measurement": "ETP restored in human or murine plasma in the presence of APC", "setting": "[1]", "value": "Only ^superFVa restored ETP to ˜90-100% in human or murine plasma at concentrations where FVa did not show effects"},
      {"measurement": "aPTT in human plasma with APC at 0.05 U/mL FVa variant", "setting": "[1]", "value": "At 0.05 U/mL FVa variants, ^superFVa fully corrected the aPTT"},
      {"measurement": "aPTT in murine plasma with human APC at 5 U/mL FVa variant", "setting": "[1]", "value": "At 5 U/mL FVa variants ^superFVa fully corrected the aPTT"},
      {"measurement": "aPTT normalisation in human plasma with 10 nM APC, concentration relative to FVa", "setting": "[1]", "value": "in human plasma ^superFVa normalized the aPTT at 100-fold lower concentrations compared to FVa"},
      {"measurement": "ETP restored in human or murine plasma in the presence of APC", "setting": "[2]", "value": "at concentrations where FVa did not show effects"},
      {"measurement": "aPTT in human plasma with APC at 0.05 U/mL FVa variant", "setting": "[2]", "value": "FVa shortened the aPTT only from ˜100 to 80 seconds"},
      {"measurement": "aPTT in murine plasma with human APC at 5 U/mL FVa variant", "setting": "[2]", "value": "FVa shortened the aPTT only from ˜100 to 70 seconds"}
    ]},
    {"substance": "recombinant murine Activated Protein C (from UniProt P33587 42-460) (enzyme)", "values": [
      {"measurement": "ex vivo whole blood aPTT after intravenous APC (0.5 mg/kg) in Balb/c mice", "setting": "[3]", "value": 30, "unit": "s"},
      {"measurement": "ex vivo whole blood aPTT after intravenous APC (0.5 mg/kg) in Balb/c mice", "setting": "[4]", "value": 50, "unit": "s"}
    ]}
  ]
}
